# Test results taken from US20210130452A1 (Merck KGaA, published 2021).
# Residue numbers refer to the chain shown, from its start. In names and notes the source's numbering stands. Read-outs that look alike come from different tables or passages of the source.
# B1: SH-Fc-(GS)2-13B03 (Fc fusion, not shown: a dimerising Fc or GST; small tags and cut ends)
# chain: EVQLVESGGGSVQAGDSLRLSCAASGRANSINWFGWFRQTPGKEREFVAGIRWSDAYTEYANSVKGRFTISRDNAKNTVDLQMDSLKPEDTAVYYCVLDLSTVRYWGQGTQVTVSS
# notes: also called MSB0010618; SH-(GS)2-Fc-13B03
# B2: 13B03 Fc fusion (Fc fusion)
# chain: B1 chain
# notes: also called 13B03 tested as Fc fusion; not shown: hinge and Fc
# B3: 13B03 (VHH)
# VHH: B1 chain
# notes: Class 4; also called IL17MS13B03
# B4: IL17MS3060 (VHH)
# VHH: DVQLVESGGGLVQPGGSLRLSCTASGTIVNIHVMGWYRQAPGKQRELVALIFSGGSADYADSVKGRFTISRDNSKNTVYLQMNSLRPEDTAVYYCAAEIGYYSGGTYYSSEAHWGQGTLVTVSS
# notes: variant of IL17MS04G01; basic = A14P, A74S, E81Q, K83R, Q108L
# B5: IL17MS3061 (VHH)
# VHH: B4 VHH with T23A
# notes: variant of IL17MS04G01; Kabat numbering
# B6: IL17MS04G01 (VHH)
# VHH: B4 VHH with D1E, P14A, L18Q, S74A, Q81E, R86K, P87A, L119Q
# notes: Class 2 Nanobody, wild type; also called WT
# B7: 13E02 (VHH)
# VHH: EVQLVESGGGLVQAGGSLRLSCAASGRTYDAMGWLRQAPGKEREFVAAISGSGDDTYYADSVKGRFTISKDNAGITMYLQMNSLKPEDTAVYYCATRRGLYYVWDSNDYENWGQGTQVTVSS
# notes: Class 4; also called IL17MS13E02
# B8: 13E02 Fc fusion (Fc fusion)
# chain: B7 VHH
# notes: also called 13E02 tested as Fc fusion; not shown: hinge and Fc
# B9: 16A04 (VHH)
# VHH: EVQLVESGGGLVQAGGSLRLSCAASGRTFSSYVVGWFRQAPGKEREFIGAISGSGDSIYYAVSEKDRFTISRDNGKNTLYLQMSSLKAEDTAVYYCTADQEFGYLRFGRSEYWGQGTQVTVSS
# notes: Class 3; also called IL17MS16A04
# B10: IL17MS3041 (VHH)
# VHH: B9 VHH with D56E
# B11: IL17MS3042 (VHH)
# VHH: B9 VHH with S57T
# B12: IL17MS3040 (VHH)
# VHH: B9 VHH with D56G
# Assays:
# human IL-17A [1] = molecular target: T1, human IL-17A (human, UniProt Q16552 24-155); assay: competition ELISA IL17A-RA
# T1 construct: secreted form (GenBank U32659) expressed in Hek293 with C-terminal 6-His; also called hIL-17A; IL-17A-6HIS
# T1 sequence (Q16552 other isoform, or with tags, fused parts or gaps): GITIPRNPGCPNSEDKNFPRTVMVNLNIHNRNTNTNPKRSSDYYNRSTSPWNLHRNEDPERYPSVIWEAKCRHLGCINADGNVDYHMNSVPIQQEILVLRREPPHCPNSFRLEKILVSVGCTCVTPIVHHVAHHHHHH
# Description: (§1) To this end, IL-17RA, respectively IL-17RC was coated at a concentration of 1 μg/ml in PBS.
# human IL-17F [2] = molecular target: T2, human IL-17F (human, UniProt Q96PD4 31-163); assay: cell-based or functional assay
# T2 sequence: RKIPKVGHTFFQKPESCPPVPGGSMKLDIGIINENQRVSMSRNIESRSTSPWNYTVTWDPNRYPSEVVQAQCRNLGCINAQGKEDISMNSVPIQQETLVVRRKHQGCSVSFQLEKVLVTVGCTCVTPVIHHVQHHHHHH
# human IL-17A [3] = molecular target: T1, human IL-17A; assay: cell-based or functional assay
# human IL-17F [4] = molecular target: T2, human IL-17F; assay: KinExA, 100 pM Nanobody
# Description: The affinity of a limited set of formatted Nanobodies was determined using the KinExA.
# human IL-17F [5] = molecular target: T3, human IL-17F (human, UniProt Q96PD4 31-163); assay: method not given
# T3 construct: also called hIL-17F; rhIL-17F
# T3 sequence: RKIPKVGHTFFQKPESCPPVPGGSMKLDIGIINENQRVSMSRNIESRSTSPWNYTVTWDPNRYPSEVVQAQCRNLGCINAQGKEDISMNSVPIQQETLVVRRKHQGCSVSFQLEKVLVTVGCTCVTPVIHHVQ
# mouse IL-17F = molecular target: T4, mouse IL-17F (mouse, UniProt Q7TNI7 29-161); assay: ELISA, coated IL-17F;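 note: binding ELISA on coated antigen from various species, with bound Nanobodies revealed by an HRP-linked anti-myc antibody and esTMB substrate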
# T4 sequence (looked up): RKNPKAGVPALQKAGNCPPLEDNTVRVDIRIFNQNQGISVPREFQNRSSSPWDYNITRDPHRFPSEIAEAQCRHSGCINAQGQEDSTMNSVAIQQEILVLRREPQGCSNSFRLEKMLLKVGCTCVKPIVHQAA
# Description: (§2) Binding of a selected panel of anti-IL-17 Nanobodies to IL-17 of other species was assessed using a binding ELISA. […] HRP (horseradish peroxidase) conjugated anti-myc (Serotec, MCA 2200P) was used for detection using esTMB as substrate.
# marmoset IL-17F = molecular target: T5, marmoset IL-17F (marmoset, UniProt A6N6I9 31-163); assay: ELISA, coated IL-17F;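 note: binding ELISA on coated antigen from various species, with bound Nanobodies revealed by an HRP-linked anti-myc antibody and esTMB substrate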
# T5 sequence (looked up): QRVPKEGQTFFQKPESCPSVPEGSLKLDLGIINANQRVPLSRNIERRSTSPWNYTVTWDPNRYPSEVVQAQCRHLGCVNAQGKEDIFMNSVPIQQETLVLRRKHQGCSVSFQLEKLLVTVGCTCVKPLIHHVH
# Description: as §2
# rat IL-17F = molecular target: T6, rat IL-17F (rat, UniProt Q5BJ95 29-161); assay: ELISA, coated IL-17F;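 note: binding ELISA on coated antigen from various species, with bound Nanobodies revealed by an HRP-linked anti-myc antibody and esTMB substrate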
# T6 sequence (looked up): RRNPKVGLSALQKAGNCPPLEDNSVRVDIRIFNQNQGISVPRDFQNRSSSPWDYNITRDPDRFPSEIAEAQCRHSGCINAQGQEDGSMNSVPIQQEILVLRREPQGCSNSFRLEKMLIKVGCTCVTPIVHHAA
# Description: as §2
# human IL-17F [6] = molecular target: T2, human IL-17F; assay: ELISA, coated IL-17F;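 note: binding ELISA on coated antigen from various species, with bound Nanobodies revealed by an HRP-linked anti-myc antibody and esTMB substrate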
# Description: as §2
# human IL-17F [7] = molecular target: T2, human IL-17F; assay: KinExA, 500 pM Nanobody
# human IL-17A [8] = molecular target: T1, human IL-17A; assay: KinExA, 500 pM Nanobody
# guinea pig IL-17A = guinea pig IL-17A (guinea pig); assay: ELISA, coated IL-17A
# Description: as §2
# marmoset IL-17A = molecular target: T7, marmoset IL-17A (marmoset, IL-17A is a disulfide-linked homodimer. One chain is given.); assay: ELISA, coated IL-17A
# T7 chain: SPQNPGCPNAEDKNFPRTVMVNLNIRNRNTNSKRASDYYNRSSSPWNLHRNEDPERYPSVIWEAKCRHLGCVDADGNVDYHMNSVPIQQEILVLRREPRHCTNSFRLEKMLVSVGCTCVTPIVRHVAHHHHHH
# Description: as §2
# mouse IL-17A = molecular target: T8, mouse IL-17A (mouse, UniProt Q62386 26-158); assay: ELISA, coated IL-17A
# T8 sequence (looked up): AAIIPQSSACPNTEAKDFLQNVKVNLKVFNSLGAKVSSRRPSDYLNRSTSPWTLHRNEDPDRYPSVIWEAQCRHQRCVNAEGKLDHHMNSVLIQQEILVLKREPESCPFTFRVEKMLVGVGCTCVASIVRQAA
# Description: as §2
# human IL-17A [9] = molecular target: T1, human IL-17A; assay: ELISA, coated IL-17A
# Description: as §2
# rat IL-17A = molecular target: T9, rat IL-17A (rat, UniProt Q61453 18-150, limits assumed); assay: ELISA, coated IL-17A
# T9 sequence (looked up): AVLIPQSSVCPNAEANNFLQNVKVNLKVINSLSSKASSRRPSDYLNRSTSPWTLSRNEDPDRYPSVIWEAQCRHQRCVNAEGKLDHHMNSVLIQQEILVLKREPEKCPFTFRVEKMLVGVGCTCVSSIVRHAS
# Description: as §2
# human IL-17F [10] = molecular target: T2, human IL-17F; assay: SPR, IL-17F-Nanobody complex over captured IL-17RC
# Excerpt: (§3) The receptor (IL-17RA or IL-17RC) was captured via its human Fc-tail by an anti-human IgG-Fc antibody coated on the chip.
# human IL-17F [11] = molecular target: T2, human IL-17F; assay: competition ELISA IL17F-RC
# Description: as §1
# human IL-17A [12] = molecular target: T1, human IL-17A; assay: SPR, IL-17A-Nanobody complex over captured IL-17RA
# Excerpt: as §3
# human IL-17A [13] = molecular target: T10, human IL-17A (human, UniProt Q16552 24-155); assay: AlphaScreen IL-17A-IL-17RA (average)
# T10 construct: secreted form made in Hek293 cells (GenBank U32659); also called hIL-17A; hIL17A
# T10 sequence (Q16552 other isoform, or with tags, fused parts or gaps): as the sequence (Q16552 other isoform, or with tags, fused parts or gaps) above
# [14] = molecular target: T11, human IL-17A/F heterodimer (human, UniProt Q16552 24-155; Q96PD4 31-163, limits assumed); assay: SPR (Biacore) off-rate
# T11 construct: bought, made in E. coli (R&D Systems 5194-IL/CF); also called hIL-17A/F; hIL17A/F
# Target sequence in this assay (Q16552 24-155 limits assumed, one chain of several): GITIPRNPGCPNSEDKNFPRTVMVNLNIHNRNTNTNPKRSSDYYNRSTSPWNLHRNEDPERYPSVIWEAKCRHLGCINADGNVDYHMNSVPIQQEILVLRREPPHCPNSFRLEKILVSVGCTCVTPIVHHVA
# human IL-17A [15] = molecular target: T10, human IL-17A; assay: SPR (Biacore) off-rate
# Cynomolgus monkey IL-17A = molecular target: T12, Cynomolgus monkey IL-17A (Cynomolgus monkey, UniProt A0A2K5TTB0 24-155); assay: SPR (Biacore) off-rate
# T12 construct: also called cyno IL-17A; cIL-17A
# human IL-17A [16] = molecular target: T10, human IL-17A; assay: competition ELISA IL-17A-IL-17RA
# [17] = molecular target: T11, human IL-17A/F heterodimer; assay: cell-based or functional assay
# Target sequence in this assay (Q16552 24-155 limits assumed, one chain of several): as above
# human IL-17A [18] = molecular target: T10, human IL-17A; assay: cell-based or functional assay; remark: listed apart in the source
# [19] = molecular target: T11, human IL-17A/F heterodimer; assay: SPR (Biacore) off-rate; remark: listed apart in the source
# Target sequence in this assay (Q16552 24-155 limits assumed, chain 1 of 2, one chain of several): as the sequence (Q16552 24-155 limits assumed, one chain of several) above
# human IL-17F [20] = molecular target: T13, human IL-17F (human, UniProt Q96PD4 31-163); assay: SPR (Biacore) off-rate
# T13 construct: made in Hek293 cells (GenBank AF384857); also called hIL-17F; hIL17F
# T13 sequence: T2 sequence
# human IL-17F [21] = molecular target: T13, human IL-17F; assay: AlphaScreen IL-17F-IL-17RC; vs IL17MS16A04
# T12 sequence (A0A2K5TTB0 entry or part of it): as the sequence (Q16552 24-155 limits assumed, one chain of several) above, with T3A, P8S, N34S, I77V, N78K, P104R counted along it
binder,measurement,setting,value
B1,IC50,human IL-17A [1],0.044 nM
same,"IC50, hIL-17F induced IL-6, HT-1080, without HSA",human IL-17F [2],5.7 nM
same,"Emax, hIL-17A induced IL-6, HT-1080, without HSA",human IL-17A [3],100%
same,"IC50, hIL-17A induced IL-6, HT-1080, without HSA",human IL-17A [3],0.37 nM
same,Kd,human IL-17F [4],0.145 nM
B2,fold lower affinity on IL-17F than on IL-17A,human IL-17F [5],~10 fold
B3,OD,mouse IL-17F,-0.0005 OD
same,OD,marmoset IL-17F,1.33 OD
same,OD,rat IL-17F,0.0085 OD
same,OD,human IL-17F [6],1.66 OD
same,Kd,human IL-17F [7],4.91 nM
same,Kd,human IL-17A [8],0.0225 nM
same,OD,guinea pig IL-17A,0.004 OD
same,OD,marmoset IL-17A,1.94 OD
same,OD,mouse IL-17A,-0.001 OD
same,OD,human IL-17A [9],1.95 OD
same,OD,rat IL-17A,0.004 OD
same,IC50,human IL-17A [1],0.121 nM
same,% Biacore binding (IL-17F-NB)-IL-17RC,human IL-17F [10],15.7%
same,IC50,human IL-17F [11],91.6 nM
same,% Biacore binding (IL-17A-NB)-IL-17RA,human IL-17A [12],-2.24%
B4,IC50,human IL-17A [13],0.081 nM
same,koff,[14],0.000209 s⁻¹
same,koff,human IL-17A [15],0.00015 s⁻¹
same,koff,Cynomolgus monkey IL-17A,0.000154 s⁻¹
same,IC50,human IL-17A [16],0.181 nM
same,"IC50 cell based assay hIL-17A/F (IL-6, HT-1080 cells)",[17],5.5 nM
same,"IC50 cell based assay hIL-17A (IL-6, HT-1080 cells)",human IL-17A [18],0.93 nM
B5,IC50,human IL-17A [13],0.027 nM
same,koff,[14],0.000195 s⁻¹
same,koff,human IL-17A [15],0.000146 s⁻¹
same,koff,Cynomolgus monkey IL-17A,0.000181 s⁻¹
same,"IC50 cell based assay hIL-17A/F (IL-6, HT-1080 cells)",[17],8.15 nM
same,"IC50 cell based assay hIL-17A (IL-6, HT-1080 cells)",human IL-17A [18],0.94 nM
B6,IC50,human IL-17A [13],0.093 nM
same,koff,[14],0.00017 to 0.00023 s⁻¹
same,koff,human IL-17A [15],0.000116 s⁻¹
same,koff,Cynomolgus monkey IL-17A,0.00032 s⁻¹
same,IC50,human IL-17A [16],0.122 nM
same,"IC50 cell based assay hIL-17A/F (IL-6, HT-1080 cells)",[17],7.55 nM
same,"IC50 cell based assay hIL-17A (IL-6, HT-1080 cells)",human IL-17A [18],0.71 nM
B7,OD,mouse IL-17F,0.0155 OD
same,OD,marmoset IL-17F,0.248 OD
same,OD,rat IL-17F,0.0255 OD
same,OD,human IL-17F [6],1.1 OD
same,Kd,human IL-17F [7],3.62 nM
same,Kd,human IL-17A [8],0.0359 nM
same,OD,guinea pig IL-17A,0.006 OD
same,OD,marmoset IL-17A,1.85 OD
same,OD,mouse IL-17A,-0.001 OD
same,OD,human IL-17A [9],1.79 OD
same,OD,rat IL-17A,0.003 OD
same,IC50,human IL-17A [1],0.42 nM
same,% Biacore binding (IL-17F-NB)-IL-17RC,human IL-17F [10],7.17%
same,IC50,human IL-17F [11],3.02 nM
same,% Biacore binding (IL-17A-NB)-IL-17RA,human IL-17A [12],-1.04%
B8,fold lower affinity on IL-17F than on IL-17A,human IL-17F [5],~10 fold
B9,OD,mouse IL-17F,-0.0015 OD
same,OD,marmoset IL-17F,1.64 OD
same,OD,rat IL-17F,0.0015 OD
same,OD,human IL-17F [6],1.74 OD
same,OD,guinea pig IL-17A,0.008 OD
same,OD,marmoset IL-17A,0.019 OD
same,OD,human IL-17A [9],0.043 OD
same,% Biacore binding (IL-17F-NB)-IL-17RC,human IL-17F [10],4.84%
same,Kd,human IL-17F [4],0.0194 nM
B10,koff,[19],0.00427 s⁻¹
same,koff,human IL-17F [20],0.000606 s⁻¹
same,IC50 fold difference vs WT,human IL-17F [21],2.2 fold
B11,koff,[19],0.005 s⁻¹
same,koff,human IL-17F [20],0.00121 s⁻¹
same,IC50 fold difference vs WT,human IL-17F [21],8.6 fold
B12,koff,[19],0.00878 s⁻¹
same,koff,human IL-17F [20],0.00148 s⁻¹
same,IC50 fold difference vs WT,human IL-17F [21],9.6 fold
